The target of the data set is T1, AtVOZ2m (Arabidopsis thaliana, UniProt Q9SLB9 1-450, C249A;H253A).
T1 sequence: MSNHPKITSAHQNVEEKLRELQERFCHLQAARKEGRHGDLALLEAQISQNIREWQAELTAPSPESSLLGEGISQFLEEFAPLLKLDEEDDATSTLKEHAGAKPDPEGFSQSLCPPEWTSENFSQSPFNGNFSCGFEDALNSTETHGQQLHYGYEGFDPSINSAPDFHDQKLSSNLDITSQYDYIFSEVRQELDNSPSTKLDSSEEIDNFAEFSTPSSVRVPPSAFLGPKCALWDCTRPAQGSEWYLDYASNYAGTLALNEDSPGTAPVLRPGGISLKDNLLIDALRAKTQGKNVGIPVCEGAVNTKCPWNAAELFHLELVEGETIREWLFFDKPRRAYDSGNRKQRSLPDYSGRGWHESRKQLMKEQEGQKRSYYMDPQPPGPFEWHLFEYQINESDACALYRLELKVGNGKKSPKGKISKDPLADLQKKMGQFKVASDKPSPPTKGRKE
Briefly: EMSA. For orientation: Mobility shift assays separate free from complexed probe on a gel.

B1: pMOS3 (dsDNA)
DNA 1: GACGTCCGGCGCAGCGTTTATCAGACGCTGGGATTAAAACA
DNA 2: TGTTTTAATCCCAGCGTCTGATAAACGCTGCGCCGGACGTC
B1: the binding result was “no binding”.

These data come from publication PMC3625871.
